Results published in publication PMC5076530.

What was measured:
[1] = biological target: human insulin receptor isoform B (human); test: radioligand binding; human IR-B in membranes of mouse embryonic fibroblasts (IGF-I receptor knock-out, solely expressing human IR-B); non-linear regression, one-site fit, depletion of free ligand taken into account
[2] = biological target: human insulin receptor isoform A (human); test: radioligand binding; competition with human 125I-insulin on IR-A in membranes of human IM-9 lymphocytes; non-linear regression, one-site fit, depletion of free ligand taken into account; Kd of 125I-insulin set to 0.3 nM
[3] = biological target: human insulin-like growth factor type I receptor (human); test: radioligand binding; competition with human 125I-IGF-I on human IGF-1R in membranes of mouse embryonic fibroblasts (IGF-1R knock-out, transfected with human IGF-1R); non-linear regression, one-site fit; Kd of 125I-IGF-I set to 0.2 nM

**Q.** For “IGF-II (recombinant, with an additional glycine at the N terminus) (ligand)”, which Kd [1] is on record?
**A.** 43.7 nM

**Q.** And the Kd [2]?
**A.** 3.03 nM

**Q.** And the Kd [3]?
**A.** 2.29 nM

**Q.** Which results are given for [N29,R34_GS,S39_PQ]IGF-II (ligand)?
**A.** Kd [2]: 19.9 nM; Kd [3]: 3.19 nM

**Q.** Which Kd [2] does the source give for [N29,S39_PQ]IGF-II (ligand) here?
**A.** 16.8 nM

**Q.** What about the Kd [3] of the same substance?
**A.** 1.33 nM

**Q.** Which Kd [1] does the source give for [N29]IGF-II (ligand) here?
**A.** 108 nM

**Q.** What about the Kd [2] of the same substance?
**A.** 10.3 nM

**Q.** What about the Kd [3] of the same substance?
**A.** 4.57 nM

**Q.** Which results are given for [R34_GS,S39_PQ]IGF-II (ligand)?
**A.** Kd [2]: 23.4 nM; Kd [3]: 5.68 nM

**Q.** With [R34_GS]IGF-II (ligand) as the substance, how does the Kd [2] read?
**A.** 15.4 nM

**Q.** And the Kd [3]?
**A.** 4.13 nM

**Q.** For [S39_PQ]IGF-II (ligand), which Kd [2] is on record?
**A.** 38 nM

**Q.** And the Kd [3]?
**A.** 5 nM
